Reference: US8722052B2, “Vaccinia virus protein A46 peptide and use thereof” (priority 2008, dated 2014)
Ends that are not written are not given here.

Columns and labels:
TLR4 [1] = biological target: T1, TLR4 (Mus musculus, UniProt Q9QUK6); experiment: LPS-induced TNFα in immortalised murine macrophages, ELISA; format: cell-based; parameters: endogenous in cells; immortalised murine bone-marrow-derived macrophages; details: peptide 1, 3, 6.25 and 12.5 μM, 20 ng/ml LPS, 6 h
T1 sequence (Q9QUK6 26-835): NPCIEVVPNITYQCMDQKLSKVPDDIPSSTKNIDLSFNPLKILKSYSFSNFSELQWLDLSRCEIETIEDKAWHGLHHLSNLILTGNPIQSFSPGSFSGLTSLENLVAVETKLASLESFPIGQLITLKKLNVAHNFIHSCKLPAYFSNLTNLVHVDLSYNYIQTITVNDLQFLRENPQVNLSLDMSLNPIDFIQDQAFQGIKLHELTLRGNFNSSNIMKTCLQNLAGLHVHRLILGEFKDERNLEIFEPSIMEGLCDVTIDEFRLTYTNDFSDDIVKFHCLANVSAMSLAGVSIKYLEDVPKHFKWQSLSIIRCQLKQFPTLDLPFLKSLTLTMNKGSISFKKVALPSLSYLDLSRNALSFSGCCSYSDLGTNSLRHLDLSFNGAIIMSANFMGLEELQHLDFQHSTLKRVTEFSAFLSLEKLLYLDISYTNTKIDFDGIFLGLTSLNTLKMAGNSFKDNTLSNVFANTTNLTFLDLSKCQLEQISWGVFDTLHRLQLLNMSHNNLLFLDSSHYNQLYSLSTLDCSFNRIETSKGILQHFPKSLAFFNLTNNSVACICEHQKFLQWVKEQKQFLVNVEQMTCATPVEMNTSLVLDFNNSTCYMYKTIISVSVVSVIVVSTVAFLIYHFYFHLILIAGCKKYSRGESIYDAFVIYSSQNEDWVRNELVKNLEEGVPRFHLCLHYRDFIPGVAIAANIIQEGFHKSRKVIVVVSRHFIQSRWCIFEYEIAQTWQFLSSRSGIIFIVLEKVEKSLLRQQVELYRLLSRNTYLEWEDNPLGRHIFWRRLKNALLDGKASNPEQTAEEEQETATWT
T1 sequence (Q9JHF9 19-160 partner): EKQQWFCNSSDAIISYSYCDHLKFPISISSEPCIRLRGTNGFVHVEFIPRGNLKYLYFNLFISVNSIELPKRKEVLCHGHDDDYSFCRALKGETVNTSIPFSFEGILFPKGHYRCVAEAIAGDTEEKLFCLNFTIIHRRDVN

TLR4 [2] = experiment: LPS-induced NFκB reporter assay in HEK293_TLR4 cells; format: cell-based, human; details: peptide 1, 5 or 25 μM 1 h before 10 ng/ml LPS, 6 h
Experimental: (§1) FIGS. 20A and B are bar charts showing the effect of shortened A464 peptides with deletions of N- and C-terminal amino acids on TLR4- and TLR3-induced NFκB activation in HEK293 cells. HEK293_TLR4 (A) and HEK293_TLR3 (B) cells were seeded in 96 well plates (1.5×10^5 cells/ml) 24 hours before transfection with the plasmid DNA. Cells were transfected with 60 ng NFκB-Luciferase and 20 ng of TK-Renilla reporter genes, as in FIG. 11. A464N-2 (SEQ ID NO. 41) and A464C-3 (SEQ ID NO. 42) peptides were added to the cells at a concentration of 1, 5 or 25 μM the next day and cells were stimulated with either 10 ng/ml LPS (A) or 25 μg/ml Poly(I:C) (B) 1 hour after treatment with peptides. Cells were harvested and assayed for NFκB activation by reporter gene assay 6 hours after stimulation with the agonists. No peptides were added to the control wells (black bars). Data is representative of three experiments each performed in triplicate and is expressed as mean fold induction±s.d. relative to control levels;
FIGS. 24A and B are bar charts showing the effect of A464 on ligand-independent TLR4 signalling in HEK293 cells. HEK293_TLR4 cells were seeded in 96 well plate (1.5×10^5 cells/ml) 24 hours before transfection with NFκB-luciferase and TK-Renilla reporter gene plasmids. NFκB activation was stimulated by transfecting either 50 or 100 ng of CD4/TLR4-encoding plasmid or by stimulating with 10 ng/ml LPS. The total amount of plasmid DNA transfected into the cells was made up to 230ng by adding pcDNA. A464 (SEQ ID NO. 20) was added to the cells at a concentration of 5 or 25 μM 2 hours (A) or 9 hours (B) after the transfection or LPS-stimulation. Cells were harvested and assayed for NFκB activation by reporter gene assay 24 hours post-transfection. No peptides were added to the control wells (black bars). Data is representative of two experiments, each performed in triplicate and is expressed as mean fold induction±s.d. relative to control levels;
HEK293 cells were transfected using GeneJuice® a proprietary non-toxic transfection reagent. […]

TLR3 = biological target: T2, TLR3 (Homo sapiens, UniProt O15455); experiment: poly(I:C)-induced NFκB / ISRE luciferase reporter assay in HEK293_TLR3 cells; format: cell-based; details: peptide 1, 5 or 25 μM, 25 μg/ml Poly(I:C), 6 h
T2 construct: expressed in transfected cells
Experimental: FIGS. 11A and B are bar charts showing the effect of A464 and scrambled A464 (ConA464) on poly(I:C)-induced TLR3 signalling in HEK293 cells. HEK293_TLR3 cells were seeded in 96 well plates (1.5×10^5 cells/ml) 24 hours before transfection with the plasmid DNA. Cells were transfected with 60 ng of either ISRE-Luciferase (A) or NFκB-Luciferase (B) and 20 ng of TK-Renilla reporter gene plasmids. The total volume of plasmid DNA transfected into the cells was made up to 230 ng by adding pcDNA.
Scrambled A464 (ConA464) (SEQ ID NO. 32) and A464 (SEQ ID NO. 20) peptides were added to the cells at a concentration of 2, 5 or 10 μM the next day and cells were stimulated with 25 μg/ml poly(I:C) 1 hour after treatment with the peptide. Cells were harvested and reporter gene assays performed 6 hr after stimulation with the agonist. No peptides were added to the control wells (black bars). Data is representative of at least three experiments each performed in triplicate. Data are expressed as mean fold induction±s.d. relative to control levels;
as §1
HEK293 cells were transfected using GeneJuice® a proprietary non-toxic transfection reagent. 200 μl/well cells at a density of 1×10^5 cells/ml were seeded the day before transfection. 0.8 μl of GeneJuice was mixed with 9.2 μl of serum-free DMEM (SFM) per transfection and incubated for 5 min at room temperature before adding the appropriate amount of the plasmid DNA. The GeneJuice/SFM/DNA mixture was then incubated at room temperature for 15 min before adding to the cells. 10 μl per well of the GeneJuice/SMF/DNA mixture was added to the cells in triplicate and the cells were allowed to recover for 18-20 hours before stimulation. […]

TLR4 [3] = experiment: LPS-induced TNFα in PMA-differentiated U937 cells, ELISA; format: cell-based, human; details: peptide 5 or 20 μM 1 h before 100 ng/ml LPS, 24 h
Experimental: FIGS. 3A and B are bar charts showing the effect of peptides derived from A46 on LPS-induced TNFα in human U937 cells. Cells were differentiated with 200 nM PMA and seeded in 96 well plates (2×10^5 cells/ml) 24 hours before treatment. A46 peptides were added to the cells at a concentration of 5 or 20 μM 1 hour before stimulating with 100 ng/ml LPS. Supernatants were collected 24 hours after stimulation and assayed for TNFα by ELISA. No peptides were added into the control wells (black bars). (A) peptides A461-A467 (SEQ ID NO. 17 to 23). (B) peptides A468-A4614 (SEQ ID NO. 24 to 30) (excluding A4612 SEQ ID NO. 28). Data is representative of at least two experiments each performed in triplicate and is expressed as mean±s.d;
Cytokine and chemokine production from cells or mouse serum was measured by ELISA using Duoset kits from R&D systems, according to the manufacturer's instructions.
LPS is a component of a cell wall of Gram-negative bacteria which is recognised by a homodimer of TLR4 and signals to NFκB via both a MyD88- and TRIF-dependent pathway (O'Neill and Bowie, 2007). In order to examine the effect of the peptides on TLR4-dependent gene induction in human cells, the human monocytic lymphoma cell line U937 was used. U937 cells were differentiated into macrophages by treatment with 200 nM PMA for 24 hours before any further manipulations. […]

PBMCs = experiment: MTT cell viability assay, PBMC; format: cell-based, human; details: peptide 1, 5 and 25 μM
Experimental: FIGS. 13A and B are bar charts showing the effect of A467 and A464 on LPS-induced TNFα production and on cell viability in primary human cells. Peripheral blood mononuclear cells (PBMCs) were seeded in 96 well plates (1 ×10^6 cells/ml) 24 hours before treatment. A467 (SEQ ID NO. 23) and A464 (SEQ ID NO. 20) were added to the cells at 1, 5 and 25 μM 1 hour before stimulating with 10 ng/ml LPS. The peptides were added into the unstimulated control wells at 25 μM. Supernatants were collected 6 hours after stimulation and assayed for TNFα production by ELISA (A). The cells were assayed for viability by the MTT assay (B). No peptides were added to the control wells (black bars). Data is representative of at least three experiments each performed in triplicate and is expressed as mean±s.d;
Cell viability was measured by assessing mitochondrial function using an MTT (3-(4,5-Dimethylthiazol-2-yl)-2,5-diphenyltetrazolium bromide) assay. Cells were seeded into 96 well plates and treated with peptides and agonists as described above in relation to the Figs. Wells containing medium only served as a blank control. To terminate treatment of cells, medium was removed and the cells were washed once with PBS. […] MTT was then removed and 200 μl per well of dimethyl sulphoxide (DMSO) was added and cells incubated for 20 min at 37° C. in the dark, prior to absorbance being read at 595 nm on a spectrophotometer.

Sequence of TLR4 (O00206 24-839): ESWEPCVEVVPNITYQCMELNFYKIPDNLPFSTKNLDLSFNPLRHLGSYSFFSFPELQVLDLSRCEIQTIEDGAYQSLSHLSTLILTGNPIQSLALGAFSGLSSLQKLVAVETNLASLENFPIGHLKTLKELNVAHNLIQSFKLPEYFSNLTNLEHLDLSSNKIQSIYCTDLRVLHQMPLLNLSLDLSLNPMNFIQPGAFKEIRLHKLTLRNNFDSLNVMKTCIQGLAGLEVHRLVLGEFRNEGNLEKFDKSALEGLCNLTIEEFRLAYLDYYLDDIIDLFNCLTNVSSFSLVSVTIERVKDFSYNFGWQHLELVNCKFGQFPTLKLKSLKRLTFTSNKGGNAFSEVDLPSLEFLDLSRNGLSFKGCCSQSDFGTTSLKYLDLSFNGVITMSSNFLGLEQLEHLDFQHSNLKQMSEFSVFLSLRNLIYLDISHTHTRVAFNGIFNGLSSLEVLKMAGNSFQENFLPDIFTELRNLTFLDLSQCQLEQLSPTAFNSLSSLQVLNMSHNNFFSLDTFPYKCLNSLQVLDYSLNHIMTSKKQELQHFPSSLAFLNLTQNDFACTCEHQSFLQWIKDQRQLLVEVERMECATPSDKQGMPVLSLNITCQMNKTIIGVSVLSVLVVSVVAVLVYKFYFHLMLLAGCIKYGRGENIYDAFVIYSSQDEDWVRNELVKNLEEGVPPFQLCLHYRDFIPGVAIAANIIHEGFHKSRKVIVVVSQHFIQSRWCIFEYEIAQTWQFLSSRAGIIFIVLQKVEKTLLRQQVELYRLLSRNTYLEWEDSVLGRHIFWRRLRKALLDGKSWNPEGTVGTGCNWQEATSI
Sequence of TLR4 (Q9Y6Y9 17-160 partner limits assumed): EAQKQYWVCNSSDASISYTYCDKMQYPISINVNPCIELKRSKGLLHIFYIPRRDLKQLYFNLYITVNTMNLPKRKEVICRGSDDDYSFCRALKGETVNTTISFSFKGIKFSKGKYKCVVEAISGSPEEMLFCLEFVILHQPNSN

9R-FKLIL (RRRRRRRRRFKLIL) [Peptide 9R-FKLIL]
inhibition of TLR4-induced murine TNFα by shorter versions of sA464N9R (TLR4 [1]): retained the ability to inhibit TLR4

9R-SFKLFL (RRRRRRRRRSFKLFL) [Peptide 9R-SFKLFL]
inhibition of TLR4-induced murine TNFα by shorter versions of sA464N9R (TLR4 [1]): did not

9R-SFKLI (RRRRRRRRRSFKLI) [Peptide 9R-SFKLI]
inhibition of TLR4-induced murine TNFα by shorter versions of sA464N9R (TLR4 [1]): did not

KYSFKLIL-9R (KYSFKLILRRRRRRRRR) [Peptide A464C-3]
inhibition of LPS-induced NFκB activation by shortened peptides (TLR4 [2]): inhibited LPS-induced NFκB activation completely at 1 μM | inhibition of Poly(I:C)-induced NFκB activation (TLR3) by shortened peptides (TLR3): no inhibition of TLR3 signalling to NFκB up to 25 μM

LILAEYIRHRNRRRRRRRRR [Peptide A465]
inhibition of LPS (TLR4)-induced TNFα production (TLR4 [3]): did not inhibit TLR4 responses

RNTISGNIYSARRRRRRRRR [Peptide A467]
toxicity (MTT) (PBMCs): not toxic

SFKLILAEY-9R (SFKLILAEYRRRRRRRRR) [Peptide A464N-2]
inhibition of LPS-induced NFκB activation by shortened peptides (TLR4 [2]): inhibited LPS-induced NFκB activation completely at 1 μM | inhibition of Poly(I:C)-induced NFκB activation (TLR3) by shortened peptides (TLR3): no inhibition of TLR3 signalling to NFκB up to 25 μM
